Measured values reported in patent publication US20230357447A1 (JANUX THERAPEUTICS, published 2023).

B1: Phage-260 clonal phage peptide (peptide)
peptide: MDWCPVFMWNECFN
notes: on phage (pIII fusion)
B2: Phage-277 clonal phage peptide (peptide)
peptide: MDWCPRSHWSECFS
notes: on phage (pIII fusion)
B3: Phage-269 clonal phage peptide (peptide)
peptide: DSFCTWSAWQECGR
notes: on phage (pIII fusion)
B4: Phage-275 clonal phage peptide (peptide)
peptide: MDWCPRDHWVDCYS
notes: on phage (pIII fusion)
B5: Phage-292 clonal phage peptide (peptide)
peptide: MDWCPRALWDHCFF
notes: on phage (pIII fusion)
B6: Phage-423 (peptide)
peptide: INLCPTPMWNRCWL
notes: Clonal phage from the Peptide-9 library
B7: Phage-308 clonal phage peptide (peptide)
peptide: MDWCPKSLWAECFN
notes: on phage (pIII fusion)
B8: Phage-430 (peptide)
peptide: IHLCHWVPWIKCSH
notes: as for B6
B9: Phage-310 clonal phage peptide (peptide)
peptide: MDWCPRDLWDECFN
notes: on phage (pIII fusion)
B10: Phage-290 clonal phage peptide (peptide)
peptide: MDWCPRDLWSVCFS
notes: on phage (pIII fusion)
B11: Phage-288 clonal phage peptide (peptide)
peptide: MDWCPIALWDFCFA
notes: on phage (pIII fusion)
B12: Phage-263 clonal phage peptide (peptide)
peptide: MDWCPRHMWHECFA
notes: on phage (pIII fusion)
B13: Phage-317 clonal phage peptide (peptide)
peptide: MDWCPRHLWHECFT
notes: on phage (pIII fusion)
B14: Phage-304 clonal phage peptide (peptide)
peptide: MDWCPKFLWDECFA
notes: on phage (pIII fusion)
B15: Phage-281 clonal phage peptide (peptide)
peptide: MDWCPRSLWFLCFN
notes: on phage (pIII fusion)
B16: Phage-307 clonal phage peptide (peptide)
peptide: MDWCPRYLWPVCFH
notes: on phage (pIII fusion)
B17: Phage-279 clonal phage peptide (peptide)
peptide: MDWCPRYLWAECFN
notes: on phage (pIII fusion)
B18: Phage-299 clonal phage peptide (peptide)
peptide: MDWCPIYLWAECFN
notes: on phage (pIII fusion)
B19: Phage-311 clonal phage peptide (peptide)
peptide: MDWCPRDLWYQCFN
notes: on phage (pIII fusion)
B20: Phage-272 clonal phage peptide (peptide)
peptide: MVWCMSVGWAVCLN
notes: on phage (pIII fusion)
B21: Phage-274 clonal phage peptide (peptide)
peptide: WVSCLRHHWLECFH
notes: on phage (pIII fusion)
B22: Phage-286 clonal phage peptide (peptide)
peptide: MERCPRYLWHMCYS
notes: on phage (pIII fusion)
B23: Phage-276 clonal phage peptide (peptide)
peptide: IDWCPKIHWDLCYF
notes: on phage (pIII fusion)
B24: Phage-320 clonal phage peptide (peptide)
peptide: MDWCPTYLWNECFN
notes: on phage (pIII fusion)
B25: Phage-266 clonal phage peptide (peptide)
peptide: VTSCPTTMWNRCFS
notes: on phage (pIII fusion)
B26: Phage-267 clonal phage peptide (peptide)
peptide: MTLCLSVDLVHCWY
notes: on phage (pIII fusion)
B27: Phage-294 clonal phage peptide (peptide)
peptide: MDWCPRSLWDYCFA
notes: on phage (pIII fusion)
B28: Phage-316 clonal phage peptide (peptide)
peptide: MDWCPRSLWNYCFA
notes: on phage (pIII fusion)
B29: Phage-280 clonal phage peptide (peptide)
peptide: MDWCPRYLWDYCFA
notes: on phage (pIII fusion)
B30: Phage-313 clonal phage peptide (peptide)
peptide: MDWCPRSLWNYCFN
notes: on phage (pIII fusion)
B31: Phage-271 clonal phage peptide (peptide)
peptide: MDWCPTSFWNRCFH
notes: on phage (pIII fusion)
B32: Phage-425 (peptide)
peptide: MDLCPTAMWNRCFY
notes: as for B6
B33: Phage-321 clonal phage peptide (peptide)
peptide: MDWCPRDLWYVCFA
notes: on phage (pIII fusion)
B34: Phage-424 (peptide)
peptide: ITQCPSTMWNRCSV
notes: as for B6
B35: Phage-262 clonal phage peptide (peptide)
peptide: MYWCATSMWNRCFV
notes: on phage (pIII fusion)
B36: Phage-426 (peptide)
peptide: MFLCPSAMWNRCFY
notes: as for B6
B37: Phage-270 clonal phage peptide (peptide)
peptide: MDWCPRDFWAFCFF
notes: on phage (pIII fusion)
B38: Phage-282 clonal phage peptide (peptide)
peptide: MDWCPRDLWFACFA
notes: on phage (pIII fusion)
B39: Phage-285 clonal phage peptide (peptide)
peptide: MDWCPRDLWAMCFA
notes: on phage (pIII fusion)
B40: Phage-315 clonal phage peptide (peptide)
peptide: MDWCPTYLWHVCFS
notes: on phage (pIII fusion)
B41: Phage-319 clonal phage peptide (peptide)
peptide: MSWCPRDLWHLCFF
notes: on phage (pIII fusion)

Experiments:
[1] = target: T1, anti-CD28 scFv (VH-linker 1-VL) (biotinylated (site not stated)); experiment: phage ELISA; biotinylated scFv on neutravidin plate; anti-M13-HRP;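 also: crude clonal phage supernatant added to wells pre-incubated with soluble CD28 protein or only blocking buffer, then washed, bound phage read out with an HRP-linked anti-M13 antibody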
T1 construct: Captured as biotinylated scFv on neutravidin coated plates in the phage ELISA
T1 sequence (scFv, as listed by the source): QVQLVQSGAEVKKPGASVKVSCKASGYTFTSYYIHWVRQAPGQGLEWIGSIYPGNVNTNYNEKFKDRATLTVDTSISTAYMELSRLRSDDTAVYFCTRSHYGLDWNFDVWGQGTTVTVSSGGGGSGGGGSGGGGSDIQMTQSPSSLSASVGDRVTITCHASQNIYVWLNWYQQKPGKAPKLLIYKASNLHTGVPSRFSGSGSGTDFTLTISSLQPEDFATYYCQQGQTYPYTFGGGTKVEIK

[2] = target: T1, anti-CD28 scFv (VH-linker 1-VL); experiment: phage ELISA; scFv wells pre-incubated with soluble CD28 (competitor);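 also: crude clonal phage supernatants added to wells pretreated with soluble CD28 in blocking buffer, bound phage read via HRP-linked anti-M13 antibody, reference wells got blocking buffer only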
Protocol: (§1) Clonal phage were harvested as crude supernatants and screened via standard enzyme linked immunosorbent assays (ELISAs). […] Prior to the addition of clonal phage, wells were incubated with blocking buffer and CD28 soluble protein or blocking buffer alone. Without washing or aspirating, clonal phage supernatants were then added to the wells and incubated for a short time. Wells were then washed followed by detection of bound phage using a horse radish peroxidase conjugated anti-M13 antibody.

[3] = target: Anti-CD28 scFv (VH-linker 1-VL); experiment: phage ELISA: biotinylated anti-CD28 scFv on neutravidin plate, clonal phage supernatant, anti-M13-HRP;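 also: before phage addition, wells were preincubated either with soluble CD28 protein in blocking buffer or with blocking buffer only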
Anti-CD28 scFv (VH-linker 1-VL), sequence (scFv, as listed by the source): as above
Protocol: as §1

[4] = target: Anti-CD28 scFv (VH-linker 1-VL); experiment: phage ELISA: biotinylated anti-CD28 scFv on neutravidin plate, clonal phage supernatant, anti-M13-HRP; wells pre-incubated with soluble CD28 (competitor);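 as to Phage binding ELISA CD28 scFv signal in presence of CD28: wells pretreated with soluble CD28 protein in blocking buffer before phage addition, no wash in between, reference wells got blocking buffer only, bound phage detected after washing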
Protocol: as §1

Row | Binder | CD28 scFv signal [1] | CD28 scFv signal in presence of CD28 [2] | Phage binding ELISA CD28 scFv signal [3] | Phage binding ELISA CD28 scFv signal in presence of CD28 [4]
1 | B1 | 2.66 | 0.356 |  | 
2 | B2 | 0.253 | 0.087 |  | 
3 | B3 | 0.13 | 0.101 |  | 
4 | B4 | 0.671 | 0.092 |  | 
5 | B5 | 2.49 | 0.394 |  | 
6 | B6 |  |  | 0.103 | 0.101
7 | B7 | 2.38 | 0.162 |  | 
8 | B8 |  |  |  | 2.51
9 | B9 | 2.37 | 0.248 |  | 
10 | B10 | 2.5 | 0.116 |  | 
11 | B11 | 2.52 | 0.492 |  | 
12 | B12 | 2.52 | 0.298 |  | 
13 | B13 | 2.3 | 0.32 |  | 
14 | B14 | 2.41 | 0.376 |  | 
15 | B15 | 2.71 | 1.77 |  | 
16 | B16 | 2.39 | 0.602 |  | 
17 | B17 | 2.74 | 1.14 |  | 
18 | B18 | 2.45 | 0.307 |  | 
19 | B19 | 2.35 | 0.609 |  | 
20 | B20 | 0.271 | 0.284 |  | 
21 | B21 | 0.723 | 0.858 |  | 

Row | Binder | CD28 scFv signal [1] | CD28 scFv signal in presence of CD28 [2] | Phage binding ELISA CD28 scFv signal [3] | Phage binding ELISA CD28 scFv signal in presence of CD28 [4]
22 | B22 | 2.59 | 0.84 |  | 
23 | B23 | 0.295 | 0.082 |  | 
24 | B24 | 2.24 | 0.606 |  | 
25 | B25 | 1.22 | 0.546 |  | 
26 | B26 | 0.632 | 0.093 |  | 
27 | B27 | 2.49 | 0.235 |  | 
28 | B28 | 2.32 | 0.198 |  | 
29 | B29 | 2.71 | 0.382 |  | 
30 | B30 | 2.35 | 0.209 |  | 
31 | B31 | 0.087 | 0.092 |  | 
32 | B32 |  |  | 0.097 | 0.084
33 | B33 | 2.22 | 0.138 |  | 
34 | B34 |  |  | 0.098 | 0.108
35 | B35 | 0.398 | 0.415 |  | 
36 | B36 |  |  | 0.094 | 0.114
37 | B37 | 2.37 | 0.655 |  | 
38 | B38 | 2.66 | 0.794 |  | 
39 | B39 | 2.63 | 0.889 |  | 
40 | B40 | 2.32 | 0.16 |  | 
41 | B41 | 2.27 | 0.319 |  | 
